Measured values taken from patent publication US20180362652A1 (Biogen, published 2018).

Biological target: T1, monomeric huBDCA2 ectodomain (human, UniProt Q8WTT0 45-213)
T1 construct: Prepared by proteolytic cleavage of the purified muIgG2a Fc-huBDCA2 fusion protein (pEAG2423); also called human BDCA2 ectodomain; human BDCA2 ECD
T1 sequence: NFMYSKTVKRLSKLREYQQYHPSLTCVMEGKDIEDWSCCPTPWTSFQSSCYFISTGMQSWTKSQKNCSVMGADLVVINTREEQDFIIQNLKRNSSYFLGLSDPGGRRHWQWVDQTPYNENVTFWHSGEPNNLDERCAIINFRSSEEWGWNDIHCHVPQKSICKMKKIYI
Assay: Octet, monomeric huBDCA2
Description: Backmutation to the unpaired cysteine, i.e., S95C, was constructed by site-directed mutagenesis producing plasmid pYL749. Variants S95T, S95A, and S95V were constructed by site-directed mutagenesis producing plasmids pYL750, pYL751, and pYL752, respectively. The full-length light chain cDNA sequences in the resultant plasmids were confirmed by DNA sequencing. […] Conditioned medium was harvested at 2 days post-transfection. […] Conditioned medium containing the C95 variant mAbs was assayed by Octet for binding to human BDCA2 ectodomain. Antibodies from conditioned medium from transiently transfected cells were bound to anti-human Fc tips, then monomeric huBDCA2 was flowed over the Octet tips, to examine binding and dissociation.

B1: hu24F4 H5/L1 C95T (antibody, human IgG1, V domains shown)
VH: DVQLVQSGGGLVKPGGSLRLSCAASGFTFSTYTMSWVRQAPGKGLEWVATISPGDSFGYYYPDSVQGRFTISRDNAKNSLYLQMNRLRAEDTAVYYCTRDIYYNYGAWFAYWGRGTLVTVSS
VL: DIQLTQSPSSLSASVGDRVTITCKASQSVDYDGDSYMNWYQQKPGKAPKLLIYAASTLESGVPSRFSGSGSGTDFTLTISSLQPEDFATYYCQQTNEDPRTFGQGTKVEIK
notes: Heavy chain pYL747 with light chain pYL750; human IgG1/kappa; also called H5/L1 C95T variant
binding result: binds
